# Results: article PMC9063426, “MAP kinases differentially bind and phosphorylate NOS3 via two unique NOS3 sites” (FEBS Open Bio, 2022)
# Entries after “also recorded” stand apart in the source; their conditions may differ.
# Key:
# NOS3 [1] = test: Oxyhemoglobin assay of NO production by kinase-treated NOS3; type: biochemical, human; conditions: oxyHb assay, 2.5 µM NOS3 with ERK2 14 nM (N = 10), p38α 14 nM (N = 4), JNK1α1-GST 63 nM (N = 3) or PKA 14 nM (N = 4), 30 min; versus untreated NOS3
# Description: (§1) Active (HIS‐NOS3) was incubated alone or with individual kinases (ERK2, p38α, JNK1α1, and PKA) in 100 µL reaction buffer (20 mM HEPES, 0.5 mM DTT, 5 mM MgCl2, 0.5 mM ATP, and 10% glycerol at a pH of 7.4). The reactions were performed at 22‐25 °C for up to 1 h, and for the examination of nitric oxide activity, samples were incubated on ice for the immediate detection of NO via the oxyhemoglobin to methemoglobin assay (see below). For immunoblotting analysis to examine phosphorylation, kinase samples were quenched with 2× sample buffer spiked with 25 mM DTT and heated to 95 °C for 5 min. Boiled samples (at equal volumes) were electrophoresed and transferred to PDVF for immunoblot staining.
# The oxyhemoglobin assay (oxyHb assay) is a spectroscopic method that measures the oxidative reaction of oxyhemoglobin at 421 nm (oxyHb) and methemoglobin (metHb) at 401 nm. Kinase assay reactions quenched on ice were used to measure NO synthesis and consumption. All oxyHb reactions were performed at 25 °C in a BioTek 96‐well UV‐visible spectrophotometer. […] Absorbance at 401 nm and 421 nm were read for 1 m at 15‐s intervals. […] Measurements were recorded for 10 min at 15‐s intervals.
# To calculate NOS3 activity, the change in absorbance/unit time was divided by the extinction coefficient (ε401‐421 = 77 200 M ^−1cm^−1 (ε401 = 38 600 M ^−1cm^−1)). […]
# NOS3 [2] = test: In vitro kinase assay with NOS3, phospho-specific immunoblotting; type: biochemical, human; conditions: active kinases with NOS3, 5 and 60 min, immunoblot with anti-pS114
# Description: as §1
# All samples were loaded at equal volumes on 3–8% gradient tris‐acetate gels. All gels were transferred to PVDF membranes and transferred for either 2 h at 40V or for 20V overnight. Membranes were blocked with one block (Li‐Cor Biosciences) for 30 m and incubated with respective antibodies (at manufacturers recommend concentrations for immunoblotting, 1 : 500 for the anti‐pS600‐NOS3) overnight at 4 °C. Blots were brought to RT for 30 m and washed 3× with 1X TBST for 10 m, probed with a fluorometric secondary antibody (Li‐Cor IRDye®) for 1 h, and washed before visualizing with a Li‐Cor Odyssey.
# NOS1 = test: BLI binding of MAP kinases to NOS1; set-up: species or system bovine; conditions: purified active JNK1α1
# NOS3 (bovine) = test: BLI binding of JNK1α1 to full-length NOS3
# Description: Biolayer interferometry (BLI) experiments were performed on a FortéBio (Menlo Park, CA) Octet QK biosensor using streptavidin (SA) sensors. Assays were performed in opaque 96‐well microplates at 25 °C. All volumes were 200 μL. Active GST‐JNK1α1 (SignalChem) was biotinylated by amine crosslinking to NHS‐LC‐LC‐biotin (succinimidyl‐6‐[biotinamido]‐6‐hexanamidohexanoate) (Thermo Fisher, Waltham, MA, USA). Reactions were performed at a 5 : 1 molar ratio of biotin to protein for 30 min at room temperature followed by separation of protein from free biotin by passage over a desalting column. Biotinylated JNK1α1 was loaded onto sensors for 300 s, which was sufficient to saturate them. Baseline was established by dipping sensors into binding buffer (50 mM Tris, pH 7.4, 10 mM NaCl, 10% glycerol, 0.01% Tween‐20) prior to moving sensors to wells containing varying concentrations of serially diluted NOS3 in the same buffer. Association was measured for 300 s, after which sensors were moved to wells containing buffer only and dissociation was monitored for another 300 s. […] Total binding was used for analysis as nonspecific binding measured by exposing sensors without ligand to analyte was negligible at all NOS3 concentrations used; that is, total binding was effectively specific binding due to very low nonspecific binding. […]
# NOS3 [3] = test: TCSPC fluorescence lifetime, conformation of NOS3; conditions: FMN excited at 473 nm, detected at 525 nm; NOS3 holoenzyme
# Description: Time‐resolved intensity decays were recorded using time‐correlated single‐photon counting fluorescence lifetime spectrometry (TCSPC FLT) to determine whether phosphorylation by JNK1α1 changes the conformation of NOS3.
molecule,measurement,setting,value
"mitogen‐activated protein kinase 8 (protein, active (phosphorylated) form; biotinylated by amine crosslinking to NHS-LC-LC-biotin, 5 : 1 molar ratio of biotin to protein; left off: GST, end not stated, kept, c-Jun N-terminal kinase) MSRSKRDNNFYSVEIGDSTFTVLKRYQNLKPIGSGAQGIVCAAYDAILERNVAIKKLSRPFQNQTHAKRAYRELVLMKCVNHKNIIGLLNVFTPQKSLEEFQDVYIVMELMDANLCQVIQMELDHERMSYLLYQMLCGIKHLHSAGIIHRDLKPSNIVVKSDCTLKILDFGLARTAGTSFMMTPYVVTRYYRAPEVILGMGYKENVDLWSVGCIMGEMVCHKILFPGRDYIDQWNKVIEQLGTPCPEFMKKLQPTVRTYVENRPKYAGYSFEKLFPDVLFPADSEHNKLKASQARDLLSKMLVIDASKRISVDEALQHPYINVWYDPSEAEAPPPKIPDKQLDEREHTIEEWKELIYKEVMDLEERTKNGVIRGQPSPLAQVQQ",NO production / NOS3 activity,NOS3 [1],do not significantly change NO production; also recorded: did not alter in vitro NOS3 activity
same,phosphorylation of NOS3 at S114,NOS3 [2],predominantly phosphorylated NOS3 at S114; also recorded: phosphorylates S114; also recorded: easily detected when compared to ERK2
same,binding to NOS1,NOS1,No evidence of JNK1α1 binding to NOS1 beyond nonspecific binding; also recorded: no binding could be detected
same,Kd,NOS3 (bovine); 400 nM trace eliminated from fit,18 nM
same,kon,"NOS3 (bovine); BLI, active GST-JNK1α1 ligand, NOS3 analyte, 25 °C, pH 7.4, global one-state fit",4106 M⁻¹ s⁻¹
same,conformation of NOS3 (fluorescence decay),NOS3 [3],no significant change in conformation; also recorded: did not differ significantly from that of unphosphorylated NOS3; also recorded: did not meaningfully change the confirmation of NOS3
